Experimental data taken from PMC9869178.

Target: recombinant RIIα subunit of PKA, fluorescein 5-maleimide-labelled (UniProt P13861)
Assay: other fluorescence titration

Sequence of recombinant RIIα subunit of PKA, fluorescein 5-maleimide-labelled (P13861 2-404): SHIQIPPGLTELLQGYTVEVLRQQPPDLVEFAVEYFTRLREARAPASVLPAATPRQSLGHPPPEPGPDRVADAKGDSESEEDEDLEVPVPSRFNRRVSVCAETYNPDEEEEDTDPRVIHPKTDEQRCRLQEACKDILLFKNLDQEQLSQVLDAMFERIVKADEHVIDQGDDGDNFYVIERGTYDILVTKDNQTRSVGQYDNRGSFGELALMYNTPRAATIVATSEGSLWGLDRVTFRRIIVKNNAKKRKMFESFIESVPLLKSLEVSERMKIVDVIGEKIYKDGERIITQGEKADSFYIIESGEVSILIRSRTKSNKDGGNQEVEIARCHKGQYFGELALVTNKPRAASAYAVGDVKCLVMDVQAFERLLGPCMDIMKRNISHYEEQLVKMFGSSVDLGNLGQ

Kd: 7.5 µM
Substance: PI3Kγ mimetic peptide (PI3Kγ MP) (from UniProt P48736 126-150)
